According to US20240117030A1 (Pfizer, published 2024):
Positions count from the first letter of the chain named.

T1: human IL-4 (human, UniProt P05112 25-153)
T1 sequence (looked up): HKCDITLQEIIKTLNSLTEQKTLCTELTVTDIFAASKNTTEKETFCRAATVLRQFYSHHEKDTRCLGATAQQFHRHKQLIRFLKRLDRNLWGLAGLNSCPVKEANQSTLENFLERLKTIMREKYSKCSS

T2: IL-33 (mm2), human IL-33 variant with all four cysteines changed to serine (human, UniProt O95760 112-270, limits assumed)
T2 sequence (looked up): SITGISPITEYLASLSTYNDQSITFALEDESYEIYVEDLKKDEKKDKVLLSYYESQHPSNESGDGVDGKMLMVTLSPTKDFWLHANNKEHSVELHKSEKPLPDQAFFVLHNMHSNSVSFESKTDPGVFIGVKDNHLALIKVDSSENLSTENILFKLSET

T3: human IL-4 (human, UniProt P05112 25-153)
T3 sequence (looked up): T1 sequence (looked up)

T4: recombinant human IL-33 (wild type, Ser112-Thr270) (human, UniProt O95760 112-270)
T4 sequence (looked up): T2 sequence (looked up) with S97C, S116C, S121C, S148C

B1: IL413TSLP-1037 (trispecific antibody)
heavy: not shown
chain 1: DIQMTQSPSSLSASVGDRVTITCKASESVDHFGWSLVHWYQQKPGKAPKLLIYRASNLESGVPSRFSGSGSGTDFTLTISSLQPEDFATYYCQQSNEDPWTFGGGTKVEIKRTVAAPSVFIFPPSDEQLKSGTASVVCLLNNFYPREAKVQWKVDNALQSGNSQESVTEQDSKDSTYSLSSTLTLSKADYEKHKVYACEVTHQGLSSPVTKSFNRGECGGGGSEVTLRESGPALVKPTQTLTLTCTFSGFSLSNFGEGLSWIRQPPGKGLEWLAHIYWDDDKRYNPSLKSRLTISKDTSRNQVVLTMTNMDPVDTATYYCARRETVFYWYFDVWGQGTTVTVSSASTKGPSVFPLAPSSKSTSGGTAALGCLVKDYFPEPVTVSWNSGALTSGVHTFPAVLQSSGLYSLSSVVTVPSSSLGTQTYICNVNHKPSNTKVDKKVEPKSCEKTHTCPPCPAPEAAGAPSVFLFPPKPKDTLMISRTPEVTCVVVDVSHEDPEVKFNWYVDGVEVHNAKTKPREEQYNSTYRVVSVLTVLHQDWLNGKEYKCKVSNKALPAPIEKTISKAKGQPREPQVYTLPPSREEMTKNQVSLTCEVKGFYPSDIAVEWESNGQPENNYKTTPPVLDSDGSFFLYSKLTVDKSRWQQGNVFSCSVLHEALHSHYTQKSLSLSPGK
light 1: SYVLTQPPSVSVAPGQTARITCGGNNLGSKSVHWYQQKPGQAPVLVVYDDKDRPSWIPERFSGSNSGNTATLTISRGEAGDEADYYCQVWDKSSDHVVFGGGTKLTVLGQPKAAPSVTLFPPSSEELQANKATLVCLISDFYPGAVTVAWKADSSPVKAGVETTTPSKQSNNKYAASSYLSLTPEQWKSHRSYSCQVTHEGSTVEKTVAPTECS
light 2: DIQMTQSPSSLSASVGDRVTITCRASQSVDEEGDSYMNWYQQKPGKAPKLLIYAASNLESGVPSRFSGSGSGTDFTLTISSLQPEDFATYYCQQSNKDPPTFGGGTKVEIKRTVAAPSVFIFPPSDEQLKSGTASVVCLLNNFYPREAKVQWKVDNALQSGNSQESVTEQDSKDSTYSLSSTLTLSKADYEKHKVYACEVTHQGLSSPVTKSFNRGEC
chain 2: EVQLVESGGGLVQPGGSLRLSCAASGFTFSSYAMSWVRQAPGKGLEWVASISSGDTTYYPDSVKGRFTISRDNAKNSLYLQMNSLRAEDTAVYYCARNEGYYFGLTLWGQGTLVTVSSASTKGPSVFPLAPSSKSTSGGTAALGCLVKDYFPEPVTVSWNSGALTSGVHTFPAVLQSSGLYSLSSVVTVPSSSLGTQTYICNVNHKPSNTKVDKKVEPKSC
B2: TSLP-0260 (antibody, V domains shown)
VH: QMQLVESGGGVVQPGRSLRLSCAASGFTFRTYGMHWVRQAPGKGLEWVAVIWYDGSNKHYADSVKGRFTISRDNSKNTLYLQMNSLRAEDTAVYYCARAPQWYLVHEAFDIWGQGTMVTVSS
VL: SYVLTQPPSVSVAPGQTARITCGGNNLGSKSVHWYQQKPGQAPVLVVYDDSDRPSWIPERFSGSNSGNTATLTISRGEAGDEADYYCQVWDESSDHVVFGGGTKLTVLG
B3: TSLP-0156 (antibody, human IgG1, lambda, V domains shown)
VH: B2 VH
VL: B2 VL with E92S
B4: IL13433-0005 (other)
heavy: EVTLRESGPALVKPTQTLTLTCTFSGFSLSNFGEGLSWIRQPPGKGLEWLAHIYWDDDKRYNPSLKSRLTISKDTSRNQVVLTMTNMDPVDTATYYCARRETVFYWYFDVWGQGTTVTVSSASTKGPSVFPEAPSSKSTSGGTAALGCLVKDYFPEPVTVSWNSGALTSGVHTFPAVLQSSGLYSLGSVVTVPSSSLGTQTYICNVNHKPSNTKVDKKVEPKSCDKTHTCPPCPAPEAAGAPSVFLFPPKPKDTLMISRTPEVTCVVVDVSHEDPEVKFNWYVDGVEVHNAKTKPREEQYNSTYRVVSVLTVLHQDWLNGKEYKCKVSNKALPAPIEKTISKAKGQPREPQVYTLPPCREEMTKNQVSLSCAVKGFYPSDIAVEWESNGQPENNYKTTPPVLDSDGSFFLVSKLTVDKSRWQQGNVFSCSVMHEALHNHYTQKSLSLSPGK
chain 1: DIQMTQSPSSLSASVGDRVTITCKASQNINKHLDWYQQKPGKAPKLLIYFTNNLQTGVPSRFSGSGSGTDFTLTISSLQPEDFATYYCFQYNQGWTFGGGTKVEIKRTVAAPSVFIFPPSDEQLKSGTASVVCLLNNFYPREAKVQWKVDNALQSGNSQESVTEQDSKDSTYSLSSTLTLSKADYEKHKVYACEVTHQGLSSPVTKSFNRGECGGGGSEVQLVESGGGLVQPGGSLRLSCAASGFTFSSYAMSWVRQAPGKGLEWVASISSGDTTYYPDSVKGRFTISRDNAKNSLYLQMNSLRAEDTAVYYCARNEGYYFGLTLWGQGTLVTVSSASTKGPSVFPKAPSSKSTSGGTAALGCLVKDYFPEPVTVSWNSGALTSGVHTFPAVLQSSGLYSLSSSVTVPSSSLGTQTYICNVNHKPSNTKVDKKVEPKSCDKTHTCPPCPAPEAAGAPSVFLFPPKPKDTLMISRTPEVTCVVVDVSHEDPEVKFNWYVDGVEVHNAKTKPREEQYNSTYRVVSVLTVLHQDWLNGKEYKCKVSNKALPAPIEKTISKAKGQPREPQVCTLPPSREEMTKNQVSLWCLVKGFYPSDIAVEWESNGQPENNYKTTPPVLDSDGSFFLYSKLTVDKSRWQQGNVFSCSVMHEALHNHYTQKSLSLSPGK
light 1: B1 light 2 with R24K, E32D, K97E, V137S, S180K
light 2: DIQMTQSPSSLSASVGDRVTITCKASESVDHFGWSLVHWYQQKPGKAPKLLIYRASNLESGVPSRFSGSGSGTDFTLTISSLQPEDFATYYCQQSNEDPWTFGGGTKVEIKRTVAAPSVFIFPPSDEQLKSGTASVSCLLNNFYPREAKVQWKVDNALQSGNSQESVTEQDSKDSTYSLDSTLTLSKADYEKHKVYACEVTHQGLSSPVTKSFNRGEC
chain 2: EVQLVESGGGLVQPGGSLRLSCAASGFTFSSYWMYWVRQAPGKGLEWVAAITPNAGEDYYPESVKGRFTISRDNAKNSLYLQMNSLRAEDTAVYYCARGHYYYTSYSLGYWGQGTLVTVSSASTKGPSVFPLAPSSKSTSGGTAALGCLVKDYFPEPVTVSWNSGALTSGVHTFPAVLQSSGLYSLSSVVTVPSSSLGTQTYICNVNHKPSNTKVDKKVEPKSC
B5: IL13433-0006 (other)
heavy: EVQLVESGGGLVQPGGSLRLSCAASGFTFSSYAMSWVRQAPGKGLEWVASISSGDTTYYPDSVKGRFTISRDNAKNSLYLQMNSLRAEDTAVYYCARNEGYYFGLTLWGQGTLVTVSSASTKGPSVFPKAPSSKSTSGGTAALGCLVKDYFPEPVTVSWNSGALTSGVHTFPAVLQSSGLYSLSSSVTVPSSSLGTQTYICNVNHKPSNTKVDKKVEPKSCDKTHTCPPCPAPEAAGAPSVFLFPPKPKDTLMISRTPEVTCVVVDVSHEDPEVKFNWYVDGVEVHNAKTKPREEQYNSTYRVVSVLTVLHQDWLNGKEYKCKVSNKALPAPIEKTISKAKGQPREPQVCTLPPSREEMTKNQVSLWCLVKGFYPSDIAVEWESNGQPENNYKTTPPVLDSDGSFFLYSKLTVDKSRWQQGNVFSCSVMHEALHNHYTQKSLSLSPGK
chain 1: DIQMTQSPSSLSASVGDRVTITCKASQNINKHLDWYQQKPGKAPKLLIYFTNNLQTGVPSRFSGSGSGTDFTLTISSLQPEDFATYYCFQYNQGWTFGGGTKVEIKRTVAAPSVFIFPPSDEQLKSGTASVVCLLNNFYPREAKVQWKVDNALQSGNSQESVTEQDSKDSTYSLSSTLTLSKADYEKHKVYACEVTHQGLSSPVTKSFNRGECGGGGSEVTLRESGPALVKPTQTLTLTCTFSGFSLSNFGEGLSWIRQPPGKGLEWLAHIYWDDDKRYNPSLKSRLTISKDTSRNQVVLTMTNMDPVDTATYYCARRETVFYWYFDVWGQGTTVTVSSASTKGPSVFPEAPSSKSTSGGTAALGCLVKDYFPEPVTVSWNSGALTSGVHTFPAVLQSSGLYSLGSVVTVPSSSLGTQTYICNVNHKPSNTKVDKKVEPKSCDKTHTCPPCPAPEAAGAPSVFLFPPKPKDTLMISRTPEVTCVVVDVSHEDPEVKFNWYVDGVEVHNAKTKPREEQYNSTYRVVSVLTVLHQDWLNGKEYKCKVSNKALPAPIEKTISKAKGQPREPQVYTLPPCREEMTKNQVSLSCAVKGFYPSDIAVEWESNGQPENNYKTTPPVLDSDGSFFLVSKLTVDKSRWQQGNVFSCSVMHEALHNHYTQKSLSLSPGK
light 1: B4 light 2
light 2: B1 light 2 with R24K, E32D, K97E, V137S, S180K
chain 2: B4 chain 2
B6: IL13433-0607 (other)
heavy: B5 heavy with S53T, L107Q, Q110R, M429L, N435S
chain 1: B5 chain 1 with K24R, N28P, N30S, N280S, P281T, S285T, M650L, N656S
light 1: B4 light 2 with K24R, S56D, N57S, S60T
light 2: B1 light 2 with N96H, V137S, S180K
chain 2: B4 chain 2

Legend:
Test in all cases: cell-based or functional assay
human TSLP (long form) = human TSLP (long form) (human, UniProt Q969D9 29-159, Biotinylated on the Avi tag in some assays; glycosylated (Expi293F expression))
human IL-4 [1] = target: T1, human IL-4
human IL-13 [2] = target: human IL-13 (human, UniProt P35225 35-146)
[3] = target: T5, recombinant human TSLP (glycosylated long form) (human, UniProt Q969D9 29-159)
[4] = target: T5, recombinant human TSLP (glycosylated …); remark: listed apart in the source
[5] = target: T2, IL-33 (mm2), human IL-33 variant with …
human IL-4 [6] = target: T3, human IL-4; remark: listed apart in the source
human IL-13 [7] = target: human IL-13 (human, UniProt P35225 35-146); remark: listed apart in the source
[8] = target: T4, recombinant human IL-33 (wild type, …)

Binder	TARC bioassay (IC50, pM) [4] [pM]	a-IL-33 bioassay cys mutant IL33) IC50 (pM) [5] [pM]	a-hIL-4 bioassay IC50, pM) (human IL-4 [6]) [pM]	a-hIL-13 bioassay (IC50, pM) (human IL-13 [7]) [pM]	also measured
B1					fold lower potency than the mAb (TSLP-0871), monocyte TARC bioassay (human TSLP (long form)): ~2.5 fold; IC50, IL-4-induced CCL17 secretion by 769-P cells (human IL-4 [1]): 179 pM; IC50, IL-13-induced CCL17 secretion by 769-P cells (human IL-13 [2]): 593 pM
B2	6.65				a-TSLP TARC bioassay (fold change to TSLP-0001) [3]: 3.4 fold
B3	4.25				
B4		45	3.2	12.5	
B5			10.3	9.01	a-IL-33 bioassay (WT IL33) IC50 (pM) [8]: 112 pM
B6		182	66.9	20.3	
